From US20030181372A1

Biological target: human paraoxonase (PON1A) (human) (UniProt P27169)
Assay: cell-based or functional assay

UniProt P27169, sequence (P27169 2-355 limits assumed): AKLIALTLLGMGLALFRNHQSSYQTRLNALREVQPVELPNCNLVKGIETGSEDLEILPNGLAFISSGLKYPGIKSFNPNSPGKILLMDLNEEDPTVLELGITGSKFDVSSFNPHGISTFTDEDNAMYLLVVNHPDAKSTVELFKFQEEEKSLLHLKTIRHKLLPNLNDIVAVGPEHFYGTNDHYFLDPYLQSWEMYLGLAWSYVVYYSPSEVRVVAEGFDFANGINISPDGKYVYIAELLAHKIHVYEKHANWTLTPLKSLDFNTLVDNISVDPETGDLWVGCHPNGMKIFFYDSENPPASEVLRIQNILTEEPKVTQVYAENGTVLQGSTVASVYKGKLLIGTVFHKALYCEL

recombinant human ApoA-I K96C
arylesterase activity, CHO-PON cells cultured 24 h with 10 µg/mL ApoA-I (U/mg cell protein): 0.067
reduction in arylesterase activity compared to ApoA-IWT: 30%

recombinant human ApoA-I R10C
arylesterase activity, CHO-PON cells cultured 24 h with 10 µg/mL ApoA-I (U/mg cell protein): 0.126
increase in arylesterase activity compared to ApoA-IWT: 30%

recombinant human ApoA-I R27C
arylesterase activity, CHO-PON cells cultured 24 h with 10 µg/mL ApoA-I (U/mg cell protein): 0.125
increase in arylesterase activity compared to ApoA-IWT: 30%

recombinant human ApoA-I R61C
arylesterase activity, CHO-PON cells cultured 24 h with 10 µg/mL ApoA-I (U/mg cell protein): 0.121
increase in arylesterase activity compared to ApoA-IWT: 30%

recombinant human ApoA-I R151C (ApoA-IParis)
secreted PON arylesterase activity, CHO-PON cells cultured 24 h with 10 µg/mL ApoA-I (U/mg cell protein): 0.086

recombinant human ApoA-I R173C (ApoA-IMilano)
secreted PON arylesterase activity, CHO-PON cells cultured 24 h with 10 µg/mL ApoA-I (U/mg cell protein): 0.076

recombinant human ApoA-I wild type (His-6 tagged)
ApoA-I concentration at which secreted PON activity is maximal (CHO-PON cell medium): 12 µg/mL
PON activity of baseline conditioned medium incubated 3 h at 37° C. with 10 µg/mL lipid-free ApoA-I postculture (relative to baseline): 94.4%
PON activity of cells grown with 10 µg/mL ApoA-I over cells grown without ApoA-I: 203%
arylesterase activity in medium at 24 h, CHO-PON cells in the presence of 10 µg/mL ApoA-I (unit/mg of cell protein): 0.087
arylesterase activity, CHO-PON cells cultured 24 h with 10 µg/mL ApoA-I (U/mg cell protein): 0.095
increase in arylesterase activity on culturing CHO-PON cells with ApoA-I: 2.1 fold
